This note sets out measurements from article PMC8217331 (Neuron, 2021).

B1: GST-AChR-α (loop between 3rd and 4th transmembrane domains) (domain or fragment, UniProt P04756 317-428, looked up)
chain: NTHHRSPSTHIMPEWVRKVFIDTIPNIMFFSTMKRPSRDKQEKRIFTEDIDISDISGKPGPPPMGFHSPLIKHPEVKSAIEGVKYIAETMKSDQESNNAAEEWKYVAMVMDH
modifications: CF555 label (Mix-n-Stain CF555)
B2: GST-β-dystroglycan (aa 773Y-893P) (domain or fragment, UniProt Q62165 773-893, looked up)
chain: YRKKRKGKLTLEDQATFIKKGVPIIFADELDDSKPPPSSSMPLILQEEKAPLPPPEYPNQSMPETTPLNQDTVGEYTPLRDEDPNAPPYQPPPPFTAPMEGKGSRPKNMTPYRSPPPYVPP
modifications: CF555 label (Mix-n-Stain CF555)
B3: GST-AChR-β (loop between 3rd and 4th transmembrane domains) (domain or fragment, UniProt P09690 333-469, looked up)
chain: HHRSPHTHQMPFWVRQIFIHKLPPYLGLKRPKPERDQLPEPHHSLSPRSGWGRGTDEYFIRKPPSDFLFPKLNRFQPESSAPDLRRFIDGPTRAVGLPQELREVISSISYMARQLQEQEDHDALKEDWQFVAMVVDR
modifications: CF555 label (Mix-n-Stain CF555)
B4: GST-MACF1 (aa 1M-293I) (domain or fragment, UniProt Q9QXZ0 1-293, looked up)
chain: MSSSDEETLSERSCRSERSCRSERSYRSERSGSLSPCPPGDTLPWNLPLHEQKKRKSQDSVLDPAERAVVRVADERDRVQKKTFTKWVNKHLMKVRKHINDLYEDLRDGHNLISLLEVLSGIKLPREKGRMRFHRLQNVQIALDFLKQRQVKLVNIRNDDITDGNPKLTLGLIWTIILHFQISDIYISGESGDMSAKEKLLLWTQKVTAGYTGVKCTNFSSCWSDGKMFNALIHRYRPDLVDMERVQVQSNRENLEQAFEVAERLGVTRLLDAEDVDVPSPDEKSVITYVSSI
modifications: CF555 label (Mix-n-Stain CF555)
B5: Rapsn-EGFP, purified (natural protein, UniProt P12672 1-412, looked up)
chain: MGQDQTKQQIEKGLQLYQSNQTEKALQVWMKVLEKGSDLVGRFRVLGCLVTAHSEMGRYKEMLKFAVVQIDTARGLEDADFLLESYLNLARSNEKLCEFHKTISYCKTCLGLPGTRAGAQLGGQVSLSMGNAFLGLSLFQKALESFEKALRYAHNNDDTMLECRVCCSLGSFYAQVKDYEKALFFPCKAAELVNDYGKGWSLKYRAMSQYHMAVAYRLLGHLGSAMECCEESMKIALQHGDRPLQALCLLCFADIHRSRGDLETAFPRYDSAMSIMTEIGNRLGQVHVLLGVAKCWMARKVQDKALDAIEKAQDLAEEVGNKLSQLKLHCLSESIYRSKGLQRELRTHVVRFHECVEETELYCGLCGESIGERNSRLQALPCSHIFHLRCLQNNGTRSCPNCRRSSMKPGFV

The assay “Rapsn-EGFP, purified” deals with B5. The assay is described as follows: co-condensation into droplets.
Assay [1] addresses α-actinin2 (aa 1M-894L), purified ( (the printed UniProt entry …, UniProt Q9JI91 1-894, CF555 label (Mix-n-Stain CF555))). The assay is described as follows: co-condensation into droplets.

α-actinin2 (aa 1M-894L), purified (, sequence (Q9JI91 whole entry): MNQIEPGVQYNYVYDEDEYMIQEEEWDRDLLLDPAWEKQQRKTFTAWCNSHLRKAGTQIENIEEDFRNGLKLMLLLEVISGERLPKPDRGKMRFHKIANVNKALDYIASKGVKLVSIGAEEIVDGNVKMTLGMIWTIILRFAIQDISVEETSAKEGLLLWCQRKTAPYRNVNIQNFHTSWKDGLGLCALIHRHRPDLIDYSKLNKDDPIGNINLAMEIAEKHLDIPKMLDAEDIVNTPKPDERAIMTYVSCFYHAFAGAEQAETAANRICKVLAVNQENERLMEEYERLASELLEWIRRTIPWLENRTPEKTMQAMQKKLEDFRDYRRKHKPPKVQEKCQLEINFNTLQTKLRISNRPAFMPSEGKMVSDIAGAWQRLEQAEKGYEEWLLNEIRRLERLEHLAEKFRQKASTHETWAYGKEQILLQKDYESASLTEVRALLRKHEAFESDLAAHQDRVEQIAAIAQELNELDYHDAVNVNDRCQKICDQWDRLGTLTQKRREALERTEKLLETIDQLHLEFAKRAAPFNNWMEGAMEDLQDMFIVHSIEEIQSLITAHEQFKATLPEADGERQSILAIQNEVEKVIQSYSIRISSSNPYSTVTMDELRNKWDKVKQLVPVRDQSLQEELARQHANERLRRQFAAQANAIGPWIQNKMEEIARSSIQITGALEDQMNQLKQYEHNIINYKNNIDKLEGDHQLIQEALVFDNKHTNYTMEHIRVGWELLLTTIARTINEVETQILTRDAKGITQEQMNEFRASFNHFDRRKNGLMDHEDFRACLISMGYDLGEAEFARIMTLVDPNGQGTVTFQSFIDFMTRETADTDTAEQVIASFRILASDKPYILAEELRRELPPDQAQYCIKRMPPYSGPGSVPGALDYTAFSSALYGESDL

In the case of B1, the binding result with Rapsn-EGFP, purified is on record as “binds”.

As for B2, the binding result with Rapsn-EGFP, purified is “binds”.

Regarding B3, in the assay with Rapsn-EGFP, purified, the binding result is recorded as “binds”.

As for B4, the binding result with Rapsn-EGFP, purified was “binds”.

As for B5, in assay [1], the binding result was “binds”.
